B1: minF1; a variant is named by its letters at N, in order (parent)
chain: GAGACCGCAACTGAAAAGTTGTTNNNNAANNNNGGNTNNATTTCTGCACGTAGAAGCAAAAGGC

Variants of: B1
Experiment: fraction ligated after 30 min (ligated reads / total reads); higher = more ligase activity
Settings: with F1*subA RNA substrate (template-directed ligation), 42 °C
Experimental: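 Chip-synthesised pool of minF1 ligase ribozyme variants (single and double substitutions, single to quadruple deletions, bulge and P2 designed variants) was transcribed with T7 and reacted as a pool with excess substrate F1*subA for 30 min at 42 C in 50 mM EPPS pH 8.5, 25 mM MgCl2. Ligated and unligated RNAs were separated by PAGE, barcoded by RT and deep sequenced; fraction ligated = ligated reads / total reads, relative activity = FL / FL of wild-type minF1 (0.76); sequencing FL correlated with PAGE (R2 = 0.98). Sequences are the DNA template of the ribozyme.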

Row | Variant | fraction ligated
1 | TAGAGGAGTGA T23A | 0.0026
2 | CAGAGGTGTGA T23A A29T | 0.00102
3 | CAAAGGATGTG T23A A29T | 0.00761
4 | TCAAGGAGTGA T23A A29T | 0.00288
5 | TAGATGGAGTT G34T T37G | 0.00107
6 | AAGATGAGTGA | 0.00469
7 | AAGATGGAGTT G34T T37G A40G | 0.0006
8 | TCAATATGTGA T23A | 0.00157
9 | ACAGAGGAGTG G34T | 0.00588
10 | CAGATGGTGTA T23A | 0.00242
11 | AAAAGATGTGA A28T A29G | 0.00466
12 | AAGATGGTGTG | 0.00357
13 | AAGATGGTGTA | 0.00401
14 | TAGAGGAGTGA A29T | 0.00156
15 | AAGAGATGTGA A28T A29G | 0.00397
16 | TCAAGATGTGA A29G | 0.0031
17 | TCAAGATGTGA A29T | 0.00235
18 | TCAAGGATTGA | 0.00222
19 | ACAAGGAGTGA A29T | 0.00407
20 | ACAGAGATTGA | 0.00246
21 | TCAATGGAGTA T23A G34T | 0.0178
22 | CAGAGGATGTA T23A | 0.00339
23 | TCAAGGAGTGA T23A | 0.00195
24 | AAGATGATTGA | 0.0028

Row | Variant | fraction ligated
25 | TCAAGGTGTGA A29T | 0.00119
26 | TAGAGATGTGA A29G | 0.00391
27 | TAGAGATGTGA A29T | 0.00374
28 | AAGAGGATGTA | 0.000999
29 | AAGAGGATGTG | 0.00366
30 | TAGATGATTGA | 0.00145
31 | CAGAGGATTGA A29T | 0.0052
32 | ACAATGTGTGA | 0.00146
33 | CAGATGGAGTA T23A G34T | 0.00843
34 | CAGATGATGTA T23A | 0.00233
35 | TCAATGAGTGA | 0.0012
36 | ACAAGATGTGA A29T | 0.0029
37 | ACAAGATGTGA A29G | 0.0031
38 | TCAGAGGAGTG G34T | 0.00594
39 | ACAAGATGTGA | 0.00207
40 | TAGAGGAGTGA | 0.00669
41 | TCAGAATGTGA | 0.00302
42 | CAGATGGTGTG T23A | 0.00474
43 | AAGATGGGTGA | 0.00372
44 | CAGATGGAGTA T23A | 0.00106
45 | CAAAGATGTGA T23A A28T A29G | 0.0035
46 | ACAAGGTGTGA A29T | 0.00256
47 | CAGATGGAGTG T23A | 0.00354
48 | TCAATGATGTA | 0.00254

Row | Variant | fraction ligated
49 | TCAATGATGTG | 0.0049
50 | TCAAGGATGTA T23A A29T | 0.00242
51 | TCAAGGATGTG T23A | 0.00539
52 | CAGAGATGTGA | 0.00372
53 | TAAAGGATTGA A29T | 0.00151
54 | TCAATGGTTGA | 0.00179
55 | TAGATGGAGTT T23A G34T T37G | 0.000868
56 | ACAATGGAGTT G34T T37G A40G | 0.00101
57 | ACAAGGATGTG A29T | 0.00671
58 | ACAATGATGTA | 0.00197
59 | ACAATGATGTG | 0.00556
60 | ACAATGGAGTG G34T | 0.0274
61 | AAGATGGTTGA | 0.00185
62 | TAGATGGAGTA T23A G34T | 0.0029
63 | TCAGAGATTGA | 0.00355
64 | TCAGAGGAGTA | 0
65 | TCAGAGGAGTG | 0.00573
66 | TCAATGATTGA T23A | 0.00254
67 | TCAAGATGTGA T23A A28T A29G | 0.00482
68 | TCAATGATGTA T23A | 0.00393
69 | ACAGAGGAGTA G34T | 0.000671
70 | CAGAGGAGTGA A29T | 0
71 | TCAAGGAGTGA | 0.000917
72 | TCAGAGAGTGA | 0.00182

Row | Variant | fraction ligated
73 | CAGAGGTGTGA T23A | 0.00265
74 | CAGAGATGTGA A28T A29G | 0.00451
75 | TCAAGGATGTG | 0.00569
76 | TCAAGGATGTA | 0.0017
77 | ACAATGGAGTT G34T T37G | 0.00166
78 | CAGAGGAGTGA T23A | 0.00148
79 | AAGAGGATGTG A29T | 0.00669
80 | ACAATGGGTGA | 0.00353
81 | TCAAGGTGTGA | 0.00226
82 | AAGATGGATGA | 0.00526
83 | CAGAGGATGTA A29T | 0.00385
84 | TAGAGGATTGA A29T | 0.00809
85 | TAAAGGATGTA T23A A29T | 0.000932
86 | CAGAGATGTGA T23A | 0.00241
87 | CAGAGGATGTA | 0.000794
88 | CAGAGGATGTG | 0.00526
89 | TAGATGATGTG T23A | 0.00386
90 | TAGATATGTGA T23A | 0.00255
91 | TCAGAGATGTA | 0.000871
92 | TCAGAGATGTG | 0.0039
93 | AAGATGGAGTA G34T | 0.00267
94 | CAGATGGTTGA | 0.000297
95 | TAGAGGTGTGA A29T | 0.00319
96 | CAGATGGAGTT T23A G34T T37G A40G | 0.00303

Row | Variant | fraction ligated
97 | TCAGAGGAGTA T23A | 0.00164
98 | CAGAGGATTGA T23A A29T | 0.00274
99 | TCAATGGAGTA G34T | 0.0216
100 | TAGAGATGTGA | 0.00183
101 | TAGAGATGTGA A28T A29G | 0.00491
102 | CAAAGGATGTA A29T | 0.00185
103 | CAGATGGGTGA | 0.00455
104 | TCAAGGATGTG T23A A29T | 0.0062
105 | AAGAGGATTGA | 0.00146
106 | TAAAGGAGTGA A29T | 0.00185
107 | CAGATGGAGTT G34T T37G | 0.0026
108 | TCAGAGGAGTT G34T T37G | 0.000958
109 | TCAATGGAGTT T23A G34T T37G | 0.00105
110 | TAGATGGTGTG T23A | 0.00451
111 | ACAGAGAGTGA | 0.00105
112 | TCAGAGGAGTG T23A | 0.0042
113 | AAGAGGTGTGA A29T | 0.00145
114 | CAGATGGAGTG | 0.00678
115 | CAGATGGAGTA | 0.00249
116 | TAGATGGAGTT G34T T37G A40G | 0.00199
117 | TAAAGGAGTGA T23A A29T | 0.00645
118 | TCAATGTGTGA | 0.00236
119 | TCAATGGGTGA | 0.00124
120 | TCAGAGGAGTG T23A G34T | 0.00498

Row | Variant | fraction ligated
121 | CAAAGGATTGA A29T | 0.0034
122 | TCAAGATGTGA | 0.00179
123 | TAAAGGATGTG T23A A29T | 0.00674
124 | AAAAGGATGTA A29T | 0.00276
125 | CAGATGAGTGA T23A | 0.00277
126 | TCAAGGATTGA T23A | 0.00297
127 | CAGATGGAGTG G34T | 0.0137
128 | CAGATGATTGA | 0.0023
129 | CAGATGGATGA | 0.00376
130 | ACAGAGGAGTG | 0.00401
131 | ACAGAGGAGTA | 0.0028
132 | TAAAGGTGTGA A29T | 0.0019
133 | TCAAGGATGTA A29T | 0.00204
134 | ACAAGATGTGA A28T A29G | 0.00369
135 | TAGAGATGTGA T23A A29G | 0.00131
136 | TAGAGATGTGA T23A A29T | 0.00334
137 | TCAGAGATTGA T23A | 0.00203
138 | TAGAGGATGTG T23A | 0.00675
139 | TCAGAATGTGA T23A | 0.00396
140 | CAGAGGAGTGA | 0.0058
141 | TCAAGGATGTA T23A | 0.000851
142 | CAGATGGAGTA G34T | 0.00644
143 | AAGAGGAGTGA | 0.00337
144 | TCAATGGAGTG G34T | 0.0438

Row | Variant | fraction ligated
145 | GAAAGATGTGA A28T A29G | 0.00247
146 | TAGATGTGTGA T23A | 0.00136
147 | AAGATGGAGTT G34T T37G | 0.00134
148 | TAAAGATGTGA A28T A29G | 0.00323
149 | AAGAGGATGTA A29T | 0.00173
150 | TAGATATGTGA | 0.00128
151 | TAGAGATGTGA T23A A28T A29G | 0.00684
152 | TCAATGGGTGA T23A | 0.00158
153 | TAGAGGAGTGA T23A A29T | 0.00307
154 | TAGAGGATGTA A29T | 0.00262
155 | CAGAGGATGTG A29T | 0.0108
156 | CAAAGGAGTGA T23A A29T | 0.00224
157 | TCAAGGTGTGA T23A | 0.00305
158 | TAGAGGATTGA | 0.00125
159 | TCAAGGATTGA A29T | 0.00468
160 | TCAATGGTGTG | 0.00437
161 | TCAATGGTGTA | 0.00227
162 | CAAAGGATTGA T23A A29T | 0.00487
163 | CAGAGGTGTGA | 0.00486
164 | TAGAGGATGTA T23A | 0.00339
165 | TCAATGTGTGA T23A | 0.00162
166 | TCAATATGTGA | 0.00184
167 | TCAATGGAGTA T23A | 0.00206

Source: the supplement of paper PMC6755084
